Laboratory results as given in article PMC5007465, “Cullin3-KLHL15 ubiquitin ligase mediates CtIP protein turnover to fine-tune DNA-end resection” (Nature Communications, 2016).
Where no end group is shown, it is not given here.

Biological target: T1, MBP-KLHL15-His (human, UniProt Q96M94 1-604)
T1 construct: KLHL15, human; gene amplified from the pCMV6-KLHL15 vector and subcloned into the pFB-MBP-fusion plasmid; In the pull-downs MBP was kept (coupled to amylose beads); MBP was cleaved only for the protein purified further; also called recombinant MBP-KLHL15; recombinant KLHL15 purified from insect cells; not shown: MBP, N-terminal, kept
T1 sequence (looked up): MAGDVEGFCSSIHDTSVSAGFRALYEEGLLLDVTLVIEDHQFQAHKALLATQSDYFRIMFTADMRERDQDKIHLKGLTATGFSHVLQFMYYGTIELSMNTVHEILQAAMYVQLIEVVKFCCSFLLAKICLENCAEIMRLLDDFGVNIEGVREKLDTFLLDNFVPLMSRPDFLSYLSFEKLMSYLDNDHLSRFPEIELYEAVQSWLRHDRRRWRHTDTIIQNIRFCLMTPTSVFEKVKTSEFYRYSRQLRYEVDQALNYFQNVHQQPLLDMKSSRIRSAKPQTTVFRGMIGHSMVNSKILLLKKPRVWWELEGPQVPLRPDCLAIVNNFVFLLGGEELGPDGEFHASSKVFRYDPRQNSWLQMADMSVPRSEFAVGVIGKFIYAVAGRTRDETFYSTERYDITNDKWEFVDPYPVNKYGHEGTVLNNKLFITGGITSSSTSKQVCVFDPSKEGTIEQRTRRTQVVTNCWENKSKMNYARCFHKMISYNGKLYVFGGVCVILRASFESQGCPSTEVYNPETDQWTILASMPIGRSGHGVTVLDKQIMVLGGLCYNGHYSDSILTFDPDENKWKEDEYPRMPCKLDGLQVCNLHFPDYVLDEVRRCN
Test: pull-down; competition: CtIP 15-mer peptide added in the indicated amounts to MBP-KLHL15 on amylose beads with HEK293T lysate
Settings: both partners purified

B1: biotinylated 15-mer peptide encompassing CtIP amino acid residues 830–844 (peptide, UniProt Q99708 830-844, looked up)
peptide: KKLASCSRHRFRYIP
modifications: also: biotinylated (position not given here)
notes: CtIP, human, residues 830-844 in the CTD; also called CtIP peptide; CtIP 15-mer peptide; source: synthetic peptide, bought: Bachem AG
- binding result: binds
